Reference: patent EP4350345A2
Changes are numbered by the printed parent chain. In names and notes the source's numbering stands.

B1: Example 1C: (A14P,R39Q,K83R,T91Y,Q108L) (VHH)
VHH: EVQLVESGGGLVQPGGSLRLSCAASGRTFNNYAMGWFRQAPGKEREFVAAITRSGVRSGVSAIYGDSVKDRFTISRDNAKNTLYLQMNSLRPEDTAVYYCAASAIGSGALRRFEYDYSGQGTLVTVSS
B2: Example 1C: (A14P,K83R,Q108L) (VHH)
VHH: B1 VHH with Q39R, Y99T

Key:
[1] = target: affinity purified antibody IHuP#002-001-ABL-08; assay: ECL bridging/competition assay, 10 ug/ml ISV with 400 ng/ml analytical antibody; competitor of labelled ISV
[2] = target: serum sample IHUS#B09032311A1; assay: ECL bridging assay, drug displacement; competitor of labelled ISV SEQ ID NO:1
[3] = target: antibodies against ISV in serum sample IHUS#B09032311A20; assay: as above
[4] = target: antibodies against ISV in serum sample IHUS#B09032311A3; assay: as above

Binder	% reduction [1] [%]	ECLU confirmatory assay [1] [ECLU]	% reduction [2] [%]	ECLU confirmatory assay [2] [ECLU]	% reduction [3] [%]	ECLU confirmatory assay [3] [ECLU]	% reduction [4] [%]	ECLU confirmatory assay [4] [ECLU]
B1	91.4	251	6	58	97	570	90	228
B2	89.1	319	8	57	97	628	93	156
